Results published in the supplement of paper PMC5998384.

Assays:
[1] = tested on: HeLa Kyoto; test: solubility in G1/S (NP-40 vs SDS abundance) (log2 ratio); higher = more soluble; settings: cell cycle stage: G1/S
[2] = tested on: HeLa Kyoto; test: melting temperature (median over replicates), in situ; higher = more thermally stable
[3] = tested on: HeLa Kyoto; test: solubility change mitosis vs G1/S (difference of NP-40 vs SDS log2 ratios) (log2 ratio difference); higher = more soluble in mitosis
[4] = tested on: HeLa Kyoto; test: thermal stability score vs G1/S (z-score of summed log2 fold changes over temperatures); higher = more thermally stable than in G1/S
[5] = cell cycle stage: early G1 (4.5 h after nocodazole release)
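Wherever melting temperature (median over replicates), in situ is given: HeLa Kyoto cells synchronized by double thymidine or nocodazole block, proteins quantified by TMT10plex mass spectrometry, three independent biological replicates.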
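Wherever solubility change mitosis vs G1/S (difference of NP-40 vs SDS log2 ratios) is given: synchronized HeLa Kyoto cells (double thymidine block for G1/S, nocodazole release for mitosis), protein amounts in NP-40 versus SDS lysates quantified by mass spectrometry, three biological replicates.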
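Wherever solubility in G1/S (NP-40 vs SDS abundance) is given: HeLa Kyoto cells arrested at G1/S by double thymidine block, proteins quantified by TMT10plex mass spectrometry in mild NP-40 versus SDS extracts, three biological replicates.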
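Wherever thermal stability score vs G1/S (z-score of summed log2 fold changes over temperatures) is given: synchronized HeLa Kyoto cells, proteins quantified by TMT10plex mass spectrometry, three biological replicates, mitosis taken 0.5 h after nocodazole release, G1/S directly after double thymidine block.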

Row | Sequence | solubility in G1/S (log2) [1] | melting temperature ([2]; cell cycle stage: G1/S) [°C] | melting temperature ([2]; cell cycle stage: mitosis) [°C] | solubility change mitosis (log2) [3] | thermal stability score [4, 5] | thermal stability score ([4]; cell cycle stage: mitosis)
1 | MLKFRTVHGGLRLLGIRRTSTAPAASPNVRRLEYKPIKKVMVANRGEIAIRVFRACTELGIRTVAIYSEQDTGQMHRQKADEAYLIGRGLAPVQAYLHIPDIIKVAKENNVDAVHPGYGFLSERADFAQACQDAGVRFIGPSPEVVRKMGDKVEARAIAIAAGVPVVPGTDAPITSLHEAHEFSNTYGFPIIFKAAYGGGGRGMRVVHSYEELEENYTRAYSEALAAFGNGALFVEKFIEKPRHIEVQILGDQYGNILHLYERDCSIQRRHQKVVEIAPAAHLDPQLRTRLTSDSVKLAKQVGYENAGTVEFLVDRHGKHYFIEVNSRLQVEHTVTEEITDVDLVHAQIHVAEGRSLPDLGLRQENIRINGCAIQCRVTTEDPARSFQPDTGRIEVFRSGEGMGIRLDNASAFQGAVISPHYDSLLVKVIAHGKDHPTAATKMSRALAEFRVRGVKTNIAFLQNVLNNQQFLAGTVDTQFIDENPELFQLRPAQNRAQKLLHYLGHVMVNGPTTPIPVKASPSPTDPVVPAVPIGPPPAGFRDILLREGPEGFARAVRNHPGLLLMDTTFRDAHQSLLATRVRTHDLKKIAPYVAHNFSKLFSMENWGGATFDVAMRFLYECPWRRLQELRELIPNIPFQMLLRGANAVGYTNYPDNVVFKFCEVAKENGMDVFRVFDSLNYLPNMLLGMEAAGSAGGVVEAAISYTGDVADPSRTKYSLQYYMGLAEELVRAGTHILCIKDMAGLLKPTACTMLVSSLRDRFPDLPLHIHTHDTSGAGVAAMLACAQAGADVVDVAADSMSGMTSQPSMGALVACTRGTPLDTEVPMERVFDYSEYWEGARGLYAAFDCTATMKSGNSDVYENEIPGGQYTNLHFQAHSMGLGSKFKEVKKAYVEANQMLGDLIKVTPSSKIVGDLAQFMVQNGLSRAEAEAQAEELSFPRSVVEFLQGYIGVPHGGFPEPFRSKVLKDLPRVEGRPGASLPPLDLQALEKELVDRHGEEVTPEDVLSAAMYPDVFAHFKDFTATFGPLDSLNTRLFLQGPKIAEEFEVELERGKTLHIKALAVSDLNRAGQRQVFFELNGQLRSILVKDTQAMKEMHFHPKALKDVKGQIGAPMPGKVIDIKVVAGAKVAKGQPLCVLSAMKMETVVTSPMEGTVRKVHVTKDMTLEGDDLILEIE [PC] | -0.0111 | 51.4 | 51.5 | -0.101 | -1.77 | -2.7
2 | MLKQILSEMYIDPDLLAELSEEQKQILFFKMREEQIRRWKEREAAMERKESLPVKPRPKKENGKSVHWKLGADKEVWVWVMGEHHLDKPYDVLCNEIIAERARLKAEQEAEEPRKTHSEEFTNSLKTKSQYHDLQAPDNQQTKDIWKKVAEKEELEQGSRPAPTLEEEKIRSLSSSSRNIQQMLADSINRMKAYAFHQKKESMKKKQDEEINQIEEERTKQICKSWKEDSEWQASLRKSKAADEKRRSLAKQAREDYKRLSLGAQKGRGGERLQSPLRVPQKPERPPLPPKPQFLNSGAYPQKPLRNQGVVRTLSSSAQEDIIRWFKEEQLPLRAGYQKTSDTIAPWFHGILTLKKANELLLSTGMPGSFLIRVSERIKGYALSYLSEDGCKHFLIDASADAYSFLGVDQLQHATLADLVEYHKEEPITSLGKELLLYPCGQQDQLPDYLELFE [SH2D4A] | 0.308 | 49 | 49.5 | -0.0397 | -0.202 | 0.42
